# Experiments:
# [1] = molecular target: cynomolgus monkey (cyno) TIGIT protein (cynomolgus monkey); test: SPR, bivalent affinity
# [2] = molecular target: human TIGIT protein (human) (UniProt Q495A1); test: SPR, bivalent affinity
# [3] = molecular target: human TIGIT protein (human) (UniProt Q495A1); test: SPR, monovalent affinity
# murine TIGIT (murine) = murine TIGIT (murine) (UniProt P86176); test: SPR, monovalent affinity
# [4] = molecular target: human TIGIT protein (human) (UniProt Q495A1); test: SPR (BIACORE), N=2
# [5] = molecular target: human TIGIT protein (human) (UniProt Q495A1); test: SPR (BIACORE) KD normalized to WT, N=2
# mouse TIGIT-His (mouse) = mouse TIGIT-His (mouse) (UniProt P86176); test: Block ELISA Mouse PVR-Fc:TIGIT-His (blocked ligand mouse PVR-Fc)
# mouse TIGIT-His (mouse), sequence (P86176 29-148 limits assumed): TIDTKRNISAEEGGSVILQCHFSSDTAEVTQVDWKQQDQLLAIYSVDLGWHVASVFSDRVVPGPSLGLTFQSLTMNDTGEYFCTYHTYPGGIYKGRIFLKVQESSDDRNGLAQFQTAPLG
# [6] = molecular target: cynomolgus TIGIT-AviFlag-biotin (cynomolgus monkey); test: Block ELISA Cyno PVR-Fc:Bio-TIGIT-AviFlag (blocked ligand cyno PVR-Fc)
# cynomolgus TIGIT-AviFlag-biotin (cynomolgus monkey), sequence (chain, as listed by the source): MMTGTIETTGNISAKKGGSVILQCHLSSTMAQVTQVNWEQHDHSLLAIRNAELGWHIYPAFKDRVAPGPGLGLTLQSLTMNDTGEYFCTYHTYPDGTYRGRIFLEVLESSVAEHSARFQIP
# [7] = molecular target: human TIGIT-AviFlag-biotin (human) (UniProt Q495A1); test: Block ELISA Human PVR-Fc:Bio-TIGIT-AviFlag (blocked ligand human PVR-Fc)
# human TIGIT-AviFlag-biotin (human), sequence (Q495A1 22-141): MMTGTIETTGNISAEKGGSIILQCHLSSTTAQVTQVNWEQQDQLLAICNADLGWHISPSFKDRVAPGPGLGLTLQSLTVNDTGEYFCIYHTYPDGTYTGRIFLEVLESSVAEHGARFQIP
# 10A7 (antibody), sequence (VH): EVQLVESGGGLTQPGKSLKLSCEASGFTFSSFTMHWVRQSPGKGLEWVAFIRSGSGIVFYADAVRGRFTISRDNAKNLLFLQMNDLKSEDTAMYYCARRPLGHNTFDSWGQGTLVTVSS
# 10A7 (antibody), sequence (VL): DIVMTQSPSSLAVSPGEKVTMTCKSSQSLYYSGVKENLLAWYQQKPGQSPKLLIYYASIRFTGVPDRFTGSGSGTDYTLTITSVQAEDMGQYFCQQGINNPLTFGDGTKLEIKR
# 10A7 Fab, sequence (VH): as the sequence (VH) above
# 10A7 Fab, sequence (VL): as the sequence (VL) above
# human TIGIT protein (human), sequence (Q495A1 22-141 limits assumed): as the sequence (Q495A1 22-141) above
# cynomolgus monkey (cyno) TIGIT protein (cynomolgus monkey), sequence (chain, as listed by the source): as the sequence (chain, as listed by the source) above
# murine TIGIT (murine), sequence (P86176 29-148 limits assumed): as the sequence (P86176 29-148 limits assumed) above
Substance,Kd [1],Kd [2],Kd [3],Kd (murine TIGIT (murine)),Kd [4],Binding affinity drop vs. WT [5],IC50 (mouse TIGIT-His (mouse)),IC50 [6],IC50 [7]
10A7 (antibody),8.22 nM,0.54 nM,24 nM,0.24 nM,44.7 nM,1 fold,12.6 nM,55.7 nM,12.9 nM
10A7 Fab,,,,,,,20.9 nM,> 133 nM,21.2 nM
xCSF1 Fab control,,,,,,,> 133 nM,> 133 nM,> 133 nM

# — patent US20220064286A1
